The values that follow come from patent US20210163535A1 (KYUNGPOOK NATIONAL UNIVERSITY INDUSTRY ACADEMIC COOPERATION …, published 2021).

The target of the assay is T1, wild-type CD44 (UniProt P16070-12 21-361, limits assumed).
T1 construct: The isoform is not defined beyond 'wild-type'
Description: pull-down of cell lysate with biotinylated peptide on avidin beads, Western blot. In general terms: In western blotting, separated proteins are transferred to a membrane and probed.

No end group written: not given here.

T1 sequence (P16070 other isoform, or with tags, fused parts or gaps limits assumed): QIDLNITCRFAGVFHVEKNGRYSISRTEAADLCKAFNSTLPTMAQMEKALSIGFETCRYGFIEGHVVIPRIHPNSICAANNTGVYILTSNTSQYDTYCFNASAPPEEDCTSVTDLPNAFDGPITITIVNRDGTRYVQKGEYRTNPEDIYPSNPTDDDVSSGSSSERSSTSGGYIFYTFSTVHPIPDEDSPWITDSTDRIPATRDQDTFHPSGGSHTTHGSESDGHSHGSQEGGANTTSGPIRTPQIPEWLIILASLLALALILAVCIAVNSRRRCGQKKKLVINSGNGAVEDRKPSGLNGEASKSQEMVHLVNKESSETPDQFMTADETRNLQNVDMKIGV

B1: v6Pep-2 (peptide)
peptide: CNEWQLKSC
modifications: cysteine pairing not given here; also: FITC-labelled or biotinylated, site of label not given here
notes: Selected from a CX7C phage display library; also called clone-2; FITC-v6Pep-2
In the case of B1, the binding result is recorded as “no binding”.

B2: v6Pep-1 (peptide)
peptide: CNLNTIDTC
modifications: cysteine pairing not given here; also: FITC-labelled or biotinylated, site of label not given here
notes: Selected from a CX7C phage display library; also called clone-1; FITC-v6Pep-1
Turning to B2, the binding result is listed as “no binding”.
